Measurements from publication PMC4575112, “Serine 363 of a Hydrophobic Region of Archaeal Ribulose 1,5-Bisphosphate Carboxylase/Oxygenase from Archaeoglobus fulgidus and Thermococcus kodakaraensis Affects CO2/O2 Substrate Specificity and Oxygen Sensitivity” (PLoS ONE, 2015).
Residue numbers refer to the chain shown, from its start. Names may count otherwise.

T1: A. fulgidus RbcL2 (Archaeoglobus fulgidus, UniProt O28635)
T1 construct: gene rbcL; recombinant in E. coli BL-21(DE3) from pET11a, untagged, purified anaerobically to homogeneity; homodimer
T1 sequence (O28635 1-441): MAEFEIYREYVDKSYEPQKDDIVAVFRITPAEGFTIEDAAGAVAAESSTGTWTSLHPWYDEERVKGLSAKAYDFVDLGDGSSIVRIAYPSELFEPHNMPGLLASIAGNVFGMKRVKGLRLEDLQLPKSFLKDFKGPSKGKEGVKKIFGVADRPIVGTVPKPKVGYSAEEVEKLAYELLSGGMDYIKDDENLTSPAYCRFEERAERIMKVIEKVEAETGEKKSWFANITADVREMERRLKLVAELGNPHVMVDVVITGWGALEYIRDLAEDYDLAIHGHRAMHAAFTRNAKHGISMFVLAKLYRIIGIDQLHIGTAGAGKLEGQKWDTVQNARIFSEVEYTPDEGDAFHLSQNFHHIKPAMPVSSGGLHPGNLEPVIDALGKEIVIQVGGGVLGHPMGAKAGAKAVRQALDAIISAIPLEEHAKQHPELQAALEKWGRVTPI

B1: T. kodakaraensis RbcL (Thermococcus kodakarensis KOD1) (protein)
chain: MVEKFDTIYDYYVDKGYEPSKKRDIIAVFRVTPAEGYTIEQAAGAVAAESSTGTWTTLYPWYEQERWADLSAKAYDFHDMGDGSWIVRIAYPFHAFEEANLPGLLASIAGNIFGMKRVKGLRLEDLYFPEKLIREFDGPAFGIEGVRKMLEIKDRPIYGVVPKPKVGYSPEEFEKLAYDLLSNGADYMKDDENLTSPWYNRFEERAEIMAKIIDKVENETGEKKTWFANITADLLEMEQRLEVLADLGLKHAMVDVVITGWGALRYIRDLAADYGLAIHGHRAMHAAFTRNPYHGISMFVLAKLYRLIGIDQLHVGTAGAGKLEGGKWDVIQNARILRESHYKPDENDVFHLEQKFYSIKAAFPTSSGGLHPGNIQPVIEALGTDIVLQLGGGTLGHPDGPAAGARAVRQAIDAIMQGIPLDEYAKTHKELARALEKWGHVTPV
notes: recombinant in E. coli BL-21(DE3) from pET11a, untagged, purified anaerobically to homogeneity; reported decamer
B2: A. fulgidus RbcL2 (Archaeoglobus fulgidus DSM 4304; S363I) (protein)
chain: T1 sequence (O28635 1-441) with S363I
notes: recombinant in E. coli BL-21(DE3) from pET11a, untagged, purified anaerobically to homogeneity; homodimer
B3: A. fulgidus RbcL2 (Archaeoglobus fulgidus DSM 4304; S363V) (protein)
chain: T1 sequence (O28635 1-441) with S363V
notes: as for B2
B4: A. fulgidus RbcL2 (Archaeoglobus fulgidus DSM 4304; M295D/S363I) (protein)
chain: T1 sequence (O28635 1-441) with M295D, S363I
notes: as for B2
B5: A. fulgidus RbcL2 (Archaeoglobus fulgidus DSM 4304; M295D/S363V) (protein)
chain: T1 sequence (O28635 1-441) with M295D, S363V
notes: as for B2

Experiments:
A. fulgidus RbcL2 [1] = biological target: T1, A. fulgidus RbcL2; assay: radiometric […]-bicarbonate carboxylase assay; assay type: biochemical; conditions: 83°C, pH 8.3, Mg2+, strictly anaerobic; value previously reported by same laboratory (ref 17), run in parallel; read-out: KRuBP ^a /; cited from earlier work
A. fulgidus RbcL2 [2] = biological target: T2, A. fulgidus RbcL2 (Archaeoglobus fulgidus, UniProt O28635, M295D); assay: radiometric […]-bicarbonate carboxylase assay; assay type: biochemical; conditions: 83°C, pH 8.3, Mg2+, strictly anaerobic; value previously reported by same laboratory (ref 17), run in parallel; read-out: KRuBP ^a /; cited from earlier work
T2 construct: gene rbcL; recombinant in E. coli BL-21(DE3) from pET11a, untagged, purified anaerobically to homogeneity; homodimer
T2 sequence (O28635 whole entry M295D): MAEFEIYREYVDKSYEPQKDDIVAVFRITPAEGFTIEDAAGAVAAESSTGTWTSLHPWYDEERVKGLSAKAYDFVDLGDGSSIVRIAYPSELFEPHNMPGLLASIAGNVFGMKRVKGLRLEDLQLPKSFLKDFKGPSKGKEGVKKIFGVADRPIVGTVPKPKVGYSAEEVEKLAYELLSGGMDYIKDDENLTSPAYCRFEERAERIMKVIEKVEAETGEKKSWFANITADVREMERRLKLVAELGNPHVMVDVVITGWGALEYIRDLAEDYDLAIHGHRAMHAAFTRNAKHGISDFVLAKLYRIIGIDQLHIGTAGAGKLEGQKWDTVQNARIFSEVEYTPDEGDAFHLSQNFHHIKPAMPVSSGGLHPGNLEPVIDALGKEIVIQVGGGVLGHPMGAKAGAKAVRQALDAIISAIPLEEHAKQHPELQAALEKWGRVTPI

purified protein [3] = substrate: O=C(COP(=O)(O)O)[C@H](O)[C@H](O)COP(=O)(O)O; assay: purified protein; assay type: biochemical, Thermococcus kodakarensis; conditions: 83°C, pH 8.3, Mg2+, strictly anaerobic
purified protein [4] = substrate: O=C(COP(=O)(O)O)[C@H](O)[C@H](O)COP(=O)(O)O; assay: purified protein; assay type: biochemical, Archaeoglobus fulgidus; conditions: 83°C, pH 8.3, Mg2+, strictly anaerobic

Row | Molecule | Km (purified protein [4]; kcat determined at 4–6 x KRuBP) [µM] | kcat (purified protein [4]; kcat determined at 4–6 x KRuBP) [s⁻¹] | other results
1 | O=C(COP(=O)(O)O)[C@H](O)[C@H](O)COP(=O)(O)O [RuBP] |  |  | Km (A. fulgidus RbcL2 [1]): 20 ± 5 µM; Km (A. fulgidus RbcL2 [2]): 21 ± 3 µM
2 | B1 |  |  | Km (purified protein [3]): 14 ± 2 µM; kcat (purified protein [3]): 16.6 s⁻¹
3 | B2 |  |  | Km (purified protein [4]): 570 ± 94 µM; kcat (purified protein [4]): 9.5 s⁻¹
4 | B3 | 118 ± 6 | 12.4 | 
5 | B4 | 1646 ± 310 | 0.7 | 
6 | B5 | 1381 ± 88 | 4.3 | 
